T1: Ala mutant SEQ ID NO: 35 (human)
T1 peptide: EENMDDQWAQDEMEIGY

T2: Ala mutant SEQ ID NO: 34 (human)
T2 peptide: EENMDDQAMQDEMEIGY

T3: Ala mutant having 3-amino acid substitution, SEQ ID NO: 46 (human)
T3 peptide: EENMDDAAAQDEMEIGY

T4: Ala mutant having 3-amino acid substitution, SEQ ID NO: 45 (human)
T4 peptide: EENAAAQWMQDEMEIGY

T5: Ala mutant SEQ ID NO: 32 (human)
T5 peptide: EENMDAQWMQDEMEIGY


How the values were obtained:
[1] = molecular target: T6, full-length recombinant human PAD4 (human, UniProt Q9UM07 1-663); assay: Biacore T200, human PAD4 as analyte
T6 construct: also called peptidylarginine deiminase 4

[2] = molecular target: T6, full-length recombinant human PAD4; assay: Biacore T200, antibody captured by anti-human antibody, human PAD4 as analyte
Excerpt: The humanized anti-PAD4 antibodies derived from G8 and H7 were subjected to Biacore (GE Healthcare, Biacore T200) assay to evaluate their affinity. At that time, the combination of the frameworks was such that the H-chain framework was H4.00 and the L-chain framework was L4.29. The class of each antibody used was IgG1κ. Full-length recombinant human PAD4 was used as an antigen. A Human Antibody Capture kit (GE Healthcare, BR-1008-39) was used for the affinity assay. Specifically, in accordance with the standard protocol provided by the manufacture, NHS/EDC was used and an amine coupling method, in which a free carboxyl group is fixed on a surface of a CM5 chip, was used to immobilize a rabbit anti-human polyclonal antibody on the surface of a CM5 chip. Next, the humanized anti-PAD4 antibodies were each captured by the rabbit anti-human polyclonal antibody. Human PAD4 at each concentration was subjected to Biacore T200 measurement to create a kinetic sensorgram.

[3] = molecular target: T6, full-length recombinant human PAD4; assay: ELISA, human PAD4 on plate, antibody 0.0009766 ug/mL
[4] = molecular target: T6, full-length recombinant human PAD4; assay: ELISA, human PAD4 on plate, antibody 1 ug/mL
[5] = molecular target: full-length recombinant human or mouse PAD4 (Example 4; which of the two is not told for the result); assay: cell-based or functional assay
[6] = molecular target: T6, full-length recombinant human PAD4; assay: ELISA, human PAD4 on plate, antibody 0.0625 ug/mL
[7] = molecular target: T6, full-length recombinant human PAD4; assay: ELISA, human PAD4 on plate, antibody 0.0039063 ug/mL
[8] = molecular target: T6, full-length recombinant human PAD4; assay: ELISA, human PAD4 on plate, antibody 0.0002441 ug/mL
[9] = molecular target: T6, full-length recombinant human PAD4; assay: ELISA, human PAD4 on plate, antibody 0.25 ug/mL
Ala mutant SEQ ID NO: 35 = molecular target: T1, Ala mutant SEQ ID NO: 35; assay: ELISA, peptide on plate (10 ug/mL)
Ala mutant SEQ ID NO: 34 = molecular target: T2, Ala mutant SEQ ID NO: 34; assay: ELISA, peptide on plate (10 ug/mL)
[10] = molecular target: T3, Ala mutant having 3-amino acid …; assay: ELISA, peptide on plate (10 ug/mL)
[11] = molecular target: T4, Ala mutant having 3-amino acid …; assay: ELISA, peptide on plate (10 ug/mL)
[12] = molecular target: T6, full-length recombinant human PAD4; assay: ELISA, human PAD4 on plate, antibody 0.015625 ug/mL
[13] = molecular target: T6, full-length recombinant human PAD4; assay: ELISA, human PAD4 on plate, antibody 6.104E-05 ug/mL
Ala mutant SEQ ID NO: 32 = molecular target: T5, Ala mutant SEQ ID NO: 32; assay: ELISA, peptide on plate (10 ug/mL)

T6 sequence (Q9UM07 whole entry): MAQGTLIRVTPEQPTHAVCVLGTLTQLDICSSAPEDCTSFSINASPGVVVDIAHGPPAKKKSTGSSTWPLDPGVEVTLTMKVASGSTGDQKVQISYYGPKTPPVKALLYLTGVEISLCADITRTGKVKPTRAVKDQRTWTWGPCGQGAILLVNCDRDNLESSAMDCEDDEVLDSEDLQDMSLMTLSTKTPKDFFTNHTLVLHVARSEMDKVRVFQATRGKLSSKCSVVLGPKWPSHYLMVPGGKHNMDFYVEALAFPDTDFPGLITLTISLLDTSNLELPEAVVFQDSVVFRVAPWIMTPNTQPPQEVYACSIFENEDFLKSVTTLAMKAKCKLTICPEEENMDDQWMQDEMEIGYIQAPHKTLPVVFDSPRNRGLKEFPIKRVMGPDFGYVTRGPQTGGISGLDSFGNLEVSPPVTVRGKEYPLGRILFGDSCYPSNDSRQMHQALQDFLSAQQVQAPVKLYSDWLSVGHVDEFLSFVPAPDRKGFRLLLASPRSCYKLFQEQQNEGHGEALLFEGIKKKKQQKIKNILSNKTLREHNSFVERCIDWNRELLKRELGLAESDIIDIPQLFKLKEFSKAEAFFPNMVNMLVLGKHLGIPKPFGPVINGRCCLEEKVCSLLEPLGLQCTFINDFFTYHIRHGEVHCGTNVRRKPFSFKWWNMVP

Binder | Kd [1] [nM] | kon [2] [M⁻¹ s⁻¹] | absorbance 490 nm/630 nm [3] [OD] | absorbance 490 nm/630 nm [4] [OD] | Relative citrullination activity [5] | absorbance 490 nm/630 nm [6] [OD] | absorbance 490 nm/630 nm [7] [OD] | absorbance 490 nm/630 nm [8] [OD] | absorbance 490 nm/630 nm [9] [OD] | absorbance 490 nm/630 nm (Ala mutant SEQ ID NO: 35) [OD] | absorbance 490 nm/630 nm (Ala mutant SEQ ID NO: 34) [OD] | absorbance 490 nm/630 nm [10] [OD] | absorbance 490 nm/630 nm [11] [OD] | absorbance 490 nm/630 nm [12] [OD] | absorbance 490 nm/630 nm [13] [OD] | absorbance 490 nm/630 nm (Ala mutant SEQ ID NO: 32) [OD]
Humanized Ab #G8-H4.00/L4.29 (IgG1κ) (antibody, V domains shown, Full-length heavy and light chains; also called humanized anti-PAD4 antibody derived from G8; G8 VH H4.00 / VL L4.29) VH: not shown VL: SYELTQPPSVSVSPGQTARITCSGGNRNYYYGWYQQKPGQAPVTVIYANDKRPSGIPERFSGSNSGSTTTLTISGVQAEDEADYYCGTADTGKYVFGGGTKLTVLG | ≤ 9 | – | – | – | – | – | – | – | – | – | – | – | – | – | – | –
A11 (antibody, IgG1, V domains shown, Chicken variable regions in mouse chimeric antibody (IgG1) expression vectors; also called anti-PAD4 antibody A11; A11 etc) VH: AVTLDESGGGLQTPGGALSLVCKASGFDFSSYGMGWMRQAPGKGLEYVAAIRNDGSWTGYGAAVKGHATISRDNGQSTVRLQLNNLRAEDTGTYYCAKTTGSRGGSIDAWGHGTEVIVS VL: ASTQPSSVSANLGGTVEITCSGGGRYYYGWYQQKSPGSAPVTVIYANDKRPSDIPSRFSGSKSGSTGTLTITGVQAEDEAVYFCGSAETSSYVFGAGTTLTVL | ≤ 9 | – | 0.511 | 2.15 | 64 relative to PBS = 100 | 2.15 | 1.31 | 0.206 | 2.11 | 0.023 | 0.021 | 0.043 | 0.039 | 2.08 | 0.063 | –
G6 (antibody, IgG1, V domains shown, Chicken variable regions in mouse chimeric antibody (IgG1) expression vectors; also called anti-PAD4 antibody G6; A11 etc) VH: AVTLDESGGGLQTPGGALSLVCKASGFTFSSYGMEWVRQAPGKGLEYVAAIRNDGSWTGYGAAVKGRATISRDDGQSTLRLQLNNLRAEDTATYYCAKTTGSSGGSIDAWGHGTEVIVS VL: ASTQPSSVSANLGETVKITCSGGGNYYYGWYQQKSPGSAPVTLIYANDKRPSNIPSRFSGSKSGSTGTLTITGVQAEDEAVYFCGTADTGKYVFGAGTTLTVL | ≤ 9 | – | 0.437 | 2.11 | 69 relative to PBS = 100 | 2.12 | 1.16 | 0.166 | 2.07 | 0.015 | 0.042 | 0.083 | 0.018 | 2.01 | 0.075 | 0.035
E9 (antibody, IgG1, V domains shown, Chicken variable regions in mouse chimeric antibody (IgG1) expression vectors; also called anti-PAD4 antibody E9; A11 etc) VH: AVTLDESGGGLQTPGGTLSLVCKGSGFTFSSYGMGWMRQAPGKGLEYVAAIRNDGSWTGYGSAVKGRATISRDNGQSTVRLQLNNLRAEDTATYYCAKTSGSSGGSVDAWGHGTEVIVS VL: ASTQPSSVSANLGGTVEITCSGGGRYYYGWYQQKSPGSAPVTVIYANDKRPSDIPSRFSGSKSGSTGTLTITGVQAEDEAVYFCGSAETSSYVFGAGTTLTVL | ≤ 9 | – | 0.489 | 2.11 | 59 relative to PBS = 100 | 2.12 | 1.36 | 0.176 | 2.08 | 0.017 | 0.047 | 0.027 | 0.022 | 2.08 | 0.07 | –
G9 (antibody, IgG1, V domains shown, Chicken variable regions in mouse chimeric antibody (IgG1) expression vectors; also called anti-PAD4 antibody G9; A11 etc) VH: AVTLDESGGGLQTPGGALSLVCKASGFTFSTYAMGWMRQAPGKGLEYVAAIRNDGSWTGYGAAVKGRATILRDNGQSTVRLQLSNLRAEDTGTYYCAKYTGSSGGSIGAWGHGTEVIVS VL: AVTQPASVSANLGGTVEITCSGGGRYYYGWYQQKSPGSAPVTVIYANDKRPSDIPSRFSGSKSGSTGTLTITGVQAEDEAVYFCGSAETSSYVFGAGTTLTVL | ≤ 9 | – | 0.534 | 2.1 | 68 relative to PBS = 100 | 2.11 | 1.36 | 0.187 | 2.08 | 0.253 | 0.038 | – | 0.019 | 2.07 | 0.082 | 0.039

Next, values leading:

Kd [1] [nM] | kon [2] [M⁻¹ s⁻¹] | absorbance 490 nm/630 nm [3] [OD] | absorbance 490 nm/630 nm [4] [OD] | Relative citrullination activity [5] | absorbance 490 nm/630 nm [6] [OD] | absorbance 490 nm/630 nm [7] [OD] | absorbance 490 nm/630 nm [8] [OD] | absorbance 490 nm/630 nm [9] [OD] | absorbance 490 nm/630 nm (Ala mutant SEQ ID NO: 35) [OD] | absorbance 490 nm/630 nm (Ala mutant SEQ ID NO: 34) [OD] | absorbance 490 nm/630 nm [10] [OD] | absorbance 490 nm/630 nm [11] [OD] | absorbance 490 nm/630 nm [12] [OD] | absorbance 490 nm/630 nm [13] [OD] | absorbance 490 nm/630 nm (Ala mutant SEQ ID NO: 32) [OD] | Binder
≤ 9 | 613000 | – | – | – | – | – | – | – | – | – | – | – | – | – | – | Humanized Ab #H7-H4.00/L4.29 (IgG1κ) (antibody, V domains shown, Full-length heavy and light chains; also called humanized anti-PAD4 antibody derived from H7) VH: not shown VL: SYELTQPPSVSVSPGQTARITCSGGSGRYYYGWYQQKPGQAPVTVIYSSTHRPSGIPERFSGSNSGSTTTLTISGVQAEDEADYYCGTADSSSYVFGGGTKLTVLG
≤ 9 | – | 0.544 | 2.12 | 63 relative to PBS = 100 | 2.12 | 1.34 | 0.184 | 2.1 | 0.233 | 0.04 | – | 0.065 | 2.08 | 0.1 | 0.083 | G8 (antibody, IgG1, V domains shown, Chicken variable regions in mouse chimeric antibody (IgG1) expression vectors; also called anti-PAD4 antibody G8; A11 etc) VH: AVTLDESGGGLQTPGGALSLVCKASGFTFSTYAMGWMRQAPGKGLEYVAAIRNDGSWTGYGAAVKGRATILRDNGQSTVRLQLSNLRAEDTGTYYCAKYTGSSGGSIGAWGHGTEVIVS VL: ASTQPSSVSANLGGTVEITCSGGNRNYYYGWYQQKSPGSAPVTLIYANDKRPSNIPSRFSGSKSGSTGTLTITGVQAEDEAVYFCGTADTGKYVFGAGTTLTVL
≤ 9 | – | 0.537 | 2.11 | 35 relative to PBS = 100 | 2.12 | 1.35 | 0.217 | 2.11 | 0.065 | 0.066 | 0.044 | 0.016 | 2.07 | 0.111 | 0.033 | H7 (antibody, IgG1, V domains shown, Chicken variable regions in mouse chimeric antibody (IgG1) expression vectors; also called anti-PAD4 antibody H7; A11 etc) VH: AVTLDESGGGLQTPGGALSLVCKASGFTFSTYAMGWMRQAPGKGLEYVAAIRNDGSWTGYGAAVKGRATILRDNGQSTVRLQLSNLRAEDTGTYYCAKYTGSSGGSIGAWGHGTEVIVS VL: ASTQPSSVSANPGGTVEITCSGGSGRYYYGWYQQKSPGSAPVTVIYSSTHRPSNIPSRFSGSKSGSTATLTITGVQAEDEAVYFCGTADSSSYVFGAGTTLTVL

From patent publication US20230192890A1 (published 2023)
